Earlier results in PMC8471248.

Biological target: cell-surface GRP78 (Homo sapiens) (UniProt P11021)
Sequence of UniProt P11021 (P11021 19-654): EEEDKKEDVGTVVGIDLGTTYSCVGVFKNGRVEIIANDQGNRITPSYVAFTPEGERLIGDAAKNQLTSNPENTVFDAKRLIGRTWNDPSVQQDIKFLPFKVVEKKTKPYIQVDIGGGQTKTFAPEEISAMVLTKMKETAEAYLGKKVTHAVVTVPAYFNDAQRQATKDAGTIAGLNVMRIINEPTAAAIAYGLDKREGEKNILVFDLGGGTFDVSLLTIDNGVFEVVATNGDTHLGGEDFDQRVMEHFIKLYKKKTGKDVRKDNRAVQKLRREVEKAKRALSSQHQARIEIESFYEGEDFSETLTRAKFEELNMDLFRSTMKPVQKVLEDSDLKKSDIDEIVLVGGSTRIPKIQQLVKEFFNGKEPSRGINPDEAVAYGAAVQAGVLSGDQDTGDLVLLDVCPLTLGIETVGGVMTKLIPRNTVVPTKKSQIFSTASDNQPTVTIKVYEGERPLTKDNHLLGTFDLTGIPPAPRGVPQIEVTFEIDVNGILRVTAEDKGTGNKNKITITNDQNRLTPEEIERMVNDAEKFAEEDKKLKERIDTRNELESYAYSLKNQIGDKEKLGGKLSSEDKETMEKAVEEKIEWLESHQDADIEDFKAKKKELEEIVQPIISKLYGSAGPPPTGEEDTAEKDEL

Substance: Activated alpha 2-macroglobulin (from UniProt P01023)
- Kd: 0.1 nM
